Laboratory results as given in US20180155451A1 (published 2018).
Numbering of substitutions follows the chain as printed. Each block holds one binder with its values, some of them ahead of it.

What was measured:
[1] = molecular target: T1, FcγRIIIa F type extracellular domain with C-terminal His tag (human, UniProt P08637 17-208); assay: SPR (Biacore), antibody captured on chip, soluble FcgR as analyte; experiment 2
T1 construct: extracellular domain; also called FcgRIIIa F; FcgRIIIaF; not shown: His tag at the C terminus
T1 sequence (P08637 17-208): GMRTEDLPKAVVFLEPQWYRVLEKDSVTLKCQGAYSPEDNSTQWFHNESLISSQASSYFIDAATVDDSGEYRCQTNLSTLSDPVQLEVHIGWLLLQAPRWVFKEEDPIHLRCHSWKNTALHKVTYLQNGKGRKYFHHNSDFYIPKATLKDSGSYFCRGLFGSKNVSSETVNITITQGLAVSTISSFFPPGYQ

[2] = molecular target: T2, FcγRIIa R type extracellular domain with C-terminal His tag (human, UniProt P12318 34-217); assay: as above
T2 construct: extracellular domain; also called FcgRIIa R; FcgRIIaR; not shown: His tag at the C terminus
T2 sequence (looked up): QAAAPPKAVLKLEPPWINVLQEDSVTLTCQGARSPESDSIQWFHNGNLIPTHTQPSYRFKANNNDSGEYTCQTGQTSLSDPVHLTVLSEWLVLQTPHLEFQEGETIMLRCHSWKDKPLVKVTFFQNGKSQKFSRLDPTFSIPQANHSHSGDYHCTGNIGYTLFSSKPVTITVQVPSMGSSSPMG

[3] = molecular target: T3, FcγRIa extracellular domain with C-terminal His tag (human, UniProt P12314 16-292); assay: as above
T3 construct: extracellular domain; also called FcgRI; FcgRIa; not shown: His tag at the C terminus
T3 sequence (P12314 16-292): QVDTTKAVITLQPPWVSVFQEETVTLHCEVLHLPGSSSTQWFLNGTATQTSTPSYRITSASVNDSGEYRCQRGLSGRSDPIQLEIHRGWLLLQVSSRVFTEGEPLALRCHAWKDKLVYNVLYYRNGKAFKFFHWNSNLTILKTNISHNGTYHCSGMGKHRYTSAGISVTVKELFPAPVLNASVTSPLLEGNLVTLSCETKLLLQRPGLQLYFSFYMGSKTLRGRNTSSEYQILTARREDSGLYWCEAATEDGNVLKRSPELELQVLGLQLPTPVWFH

[4] = molecular target: T4, FcγRIIIa V type extracellular domain with C-terminal His tag (human, UniProt P08637 17-208); assay: as above
T4 construct: extracellular domain; also called FcgRIIIa V; FcgRIIIaV; not shown: His tag at the C terminus
T4 sequence (P08637 17-208 F176V): as the sequence (P08637 17-208) above, with F160V counted along it

[5] = molecular target: T5, FcγRIIb extracellular domain with C-terminal His tag (human, UniProt P31994 43-217); assay: as above
T5 construct: extracellular domain; also called FcgRIIb; 2b; not shown: His tag at the C terminus
T5 sequence (looked up): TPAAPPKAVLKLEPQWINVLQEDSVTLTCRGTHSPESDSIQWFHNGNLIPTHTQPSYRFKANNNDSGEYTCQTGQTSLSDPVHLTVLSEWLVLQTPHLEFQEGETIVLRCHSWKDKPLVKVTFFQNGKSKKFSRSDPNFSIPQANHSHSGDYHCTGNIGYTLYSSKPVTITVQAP

[6] = molecular target: T6, FcγRIIa H type extracellular domain with C-terminal His tag (human, UniProt P12318 34-217); assay: as above
T6 construct: extracellular domain; also called FcgRIIa H; FcgRIIaH; not shown: His tag at the C terminus
T6 sequence (looked up): T2 sequence (looked up) with R134H

[7] = molecular target: T1, FcγRIIIa F type extracellular domain …; assay: SPR (Biacore), antibody captured on chip, soluble FcgR as analyte; experiment 1
Procedure: (§1) Antibodies of interest were analyzed for the interaction to FcgR according to the method described in Reference Example 8.
(§2) Analysis of interaction between obj ective antibody and the FcγR was carried out using Biacore T100 (GE Healthcare), Biacore T200, Biacore A100, and Biacore 4000. HBS-EP+ (GE Healthcare) was used as the running buffer, and the measurement temperature was set to 25° C. Chips produced by immobilizing the antigen peptide by the amine coupling method to a Series S sensor Chip CM5 (GE Healthcare), chips produced by allowing preliminarily biotinylated antigen peptides to interact with and immobilize onto a Series S Sensor Chip SA (certified) (GE Healthcare), chips produced by immobilizing Protein L (ACTIGEN, BioVision) to Series S Sencor Chip CM5 (GE Healthcare), or chips produced by immobilizing Protein A/G (Thermo Scientific) to Series S Sencor Chip CM5 (GE Healthcare) were used. Antibodies of interest were captured onto these chips, and allowed to interact to each FcγR diluted with running buffer. To regenerate and repeatedly use the chip, the antibodies captured onto the chip were washed off by reacting 10 mM glycine-HCl, pH 1.5.

[8] = molecular target: T2, FcγRIIa R type extracellular domain …; assay: as above
Procedure: as §1, §2

[9] = molecular target: T3, FcγRIa extracellular domain with …; assay: as above
Procedure: as §1, §2

[10] = molecular target: T4, FcγRIIIa V type extracellular domain …; assay: as above
Procedure: as §1, §2

[11] = molecular target: T5, FcγRIIb extracellular domain with …; assay: as above
Procedure: as §1, §2

[12] = molecular target: T6, FcγRIIa H type extracellular domain …; assay: as above
Procedure: as §1, §2

[13] = molecular target: T1, FcγRIIIa F type extracellular domain …; assay: SPR (Biacore), antibody captured on chip, soluble FcgR as analyte; experiment 3
Procedure: as §1, §2

[14] = molecular target: T2, FcγRIIa R type extracellular domain …; assay: as above
Procedure: as §1, §2

[15] = molecular target: T3, FcγRIa extracellular domain with …; assay: as above
Procedure: as §1, §2

[16] = molecular target: T4, FcγRIIIa V type extracellular domain …; assay: as above
Procedure: as §1, §2

[17] = molecular target: T5, FcγRIIb extracellular domain with …; assay: as above
Procedure: as §1, §2

[18] = molecular target: T6, FcγRIIa H type extracellular domain …; assay: as above
Procedure: as §1, §2

[19] = molecular target: T1, FcγRIIIa F type extracellular domain …; assay: SPR (Biacore), antibody captured on chip, soluble FcgR as analyte; experiment 1 (second row of this antibody)
Procedure: as §1, §2

[20] = molecular target: T2, FcγRIIa R type extracellular domain …; assay: as above
Procedure: as §1, §2

[21] = molecular target: T3, FcγRIa extracellular domain with …; assay: as above
Procedure: as §1, §2

[22] = molecular target: T4, FcγRIIIa V type extracellular domain …; assay: as above
Procedure: as §1, §2

[23] = molecular target: T5, FcγRIIb extracellular domain with …; assay: as above
Procedure: as §1, §2

[24] = molecular target: T6, FcγRIIa H type extracellular domain …; assay: as above
Procedure: as §1, §2

- Kd [1]: 3.7 nM
- Kd [2]: 280 nM
- Kd [3]: 0.12 nM
- Kd [4]: 1.2 nM
- Kd [5]: 1500 nM
- Kd [6]: 69 nM
- Kd [7]: 2.9 nM
- Kd [8]: 240 nM
- Kd [9]: 0.11 nM
- Kd [10]: 0.99 nM
- Kd [11]: 1300 nM
- Kd [12]: 72 nM
- Kd [13]: 3.7 nM
- Kd [14]: 240 nM
- Kd [15]: 0.11 nM
- Kd [16]: 1.2 nM
- Kd [17]: 1400 nM
- Kd [18]: 79 nM
B1: H240-AK072/H240-BH076/L73-k0 (antibody, human IgG1, kappa)
heavy 1: QDQLVQSGAEVKKPGASVKVSCKASGFNIKDTYIQWVRQAPGQGLEWMGRIDPLRKQTKYREKFEGRVTITADTSTNTAYMELSSLRSEDTAVYYCVRSGREFDYWGQGTLVTVSSASTKGPSVFPLAPSSKSTSGGTAALGCLVKDYFPEPVTVSWNSGALTSGVHTFPAVLQSSGLYSLSSVVTVPSSSLGTQTYICNVNHKPSNTKVDKKVEPKSCDKTHTCPPCPAPEYYWGPSVFLFPPKPKDTLMISRTPEVTCVVVDVSDEEPEVKFNWYVDGVEVHNAKTKPREEQYNATYRVVSVLTVLHQDWLNGKEYKCKVSNKALPAPIEKTISKAKGQPREPQVYTLPPSRKEMTKNQVSLTCLVKGFYPSDIAVEWESNGQPENNYKTTPPVLDSDGSFFLYSKLTVDKSRWQQGNVFSCSVMHEALHNRYTQKSLSLSP
heavy 2: QDQLVQSGAEVKKPGASVKVSCKASGFNIKDTYIQWVRQAPGQGLEWMGRIDPLRKQTKYREKFEGRVTITADTSTNTAYMELSSLRSEDTAVYYCVRSGREFDYWGQGTLVTVSSASTKGPSVFPLAPSSKSTSGGTAALGCLVKDYFPEPVTVSWNSGALTSGVHTFPAVLQSSGLYSLSSVVTVPSSSLGTQTYICNVNHKPSNTKVDKKVEPKSCDKTHTCPPCPAPELLGGPSVFLFPPKPKDTLMISRTPEVTCVVVDVSHEEPEVKFNWYVDGVEVHNAKTKPREEQYNSTYRVVSVLTVLHQDWLNGKEYKCKVSNDALPMPIEETISKAKGQPREPQVYTLPPSREEMTKNQVSLTCLVKGFYPSDIAVEWESNGQPENNYKTTPPVLDSDGSFFLYSKLTVDKSRWQQGNVFSCSVMHEALHNHYTQESLSLSP
light: DIQMTQSPSSLSASVGDRVTITCRASQDIHKYIAWYQQKPGQAPRLLIQYTSTLQPGVPSRFSGSGSGTDYTFTISSLQPEDIATYYCLQYEQLRTFGGGTKVEIKRTVAAPSVFIFPPSDEQLKSGTASVVCLLNNFYPREAKVQWKVDNALQSGNSQESVTEQDSKDSTYSLSSTLTLSKADYEKHKVYACEVTHQGLSSPVTKSFNRGEC
notes: Heterodimerized anti-epiregulin (EREG) IgG1 antibody with two different H chains

- Kd [19]: 3.9 nM
- Kd [20]: 260 nM
- Kd [21]: 0.082 nM
- Kd [22]: 1.2 nM
- Kd [23]: 1500 nM
- Kd [24]: 85 nM
- Kd [7]: 4.8 nM
- Kd [8]: 250 nM
- Kd [9]: 0.12 nM
- Kd [10]: 1.4 nM
- Kd [11]: 1500 nM
- Kd [12]: 85 nM
B2: H240-FA030/H240-FB059/L73-k0 (antibody, human IgG1, kappa)
heavy 1: B1 heavy 1 with Q195K, I198T, E271K
heavy 2: B1 heavy 2 with G137E, K146E, K273Q, K287E
light: B1 light
notes: Heterodimerized anti-EREG IgG1 antibody; A chain altered from H240-AK072, B chain altered from H240-BH076
